In US20240199762A1 (PHILOGEN S P A, published 2024):

How the values were obtained:
[1] = molecular target: T1, ovine FAP (oFAP) extracellular domain (ECD) (sheep); assay: ELISA, 120 nM oFAP-ECD coated, antibody at 5 ug/mL
T1 construct: also called oFAP-ECD
T1 chain: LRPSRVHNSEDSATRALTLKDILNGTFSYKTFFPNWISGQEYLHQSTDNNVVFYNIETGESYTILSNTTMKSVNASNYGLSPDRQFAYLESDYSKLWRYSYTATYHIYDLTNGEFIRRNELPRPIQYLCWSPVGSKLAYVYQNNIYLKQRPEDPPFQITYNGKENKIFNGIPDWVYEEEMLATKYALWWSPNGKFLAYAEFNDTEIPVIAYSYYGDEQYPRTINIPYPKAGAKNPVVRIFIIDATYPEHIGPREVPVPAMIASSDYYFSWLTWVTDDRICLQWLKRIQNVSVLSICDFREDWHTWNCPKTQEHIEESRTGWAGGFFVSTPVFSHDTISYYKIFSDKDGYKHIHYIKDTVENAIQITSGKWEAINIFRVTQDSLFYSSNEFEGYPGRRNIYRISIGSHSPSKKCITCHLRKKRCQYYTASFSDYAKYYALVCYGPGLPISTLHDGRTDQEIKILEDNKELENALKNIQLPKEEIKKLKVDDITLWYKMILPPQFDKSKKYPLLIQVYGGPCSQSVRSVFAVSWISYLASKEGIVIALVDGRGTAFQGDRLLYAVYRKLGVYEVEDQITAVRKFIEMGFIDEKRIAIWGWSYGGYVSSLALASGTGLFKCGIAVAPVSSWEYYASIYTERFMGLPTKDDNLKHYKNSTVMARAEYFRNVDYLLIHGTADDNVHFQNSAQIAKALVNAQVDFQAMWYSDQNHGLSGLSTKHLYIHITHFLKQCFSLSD
Procedure: (§1) Cross-reactivity of the anti-hFAP antibodies with oFAP-ECD and pFAP-ECD was tested using ELISA. 120 nM of oFAP-ECD or pFAP-ECD was coated on Maxisorp plates overnight at 4° C. […] Specifically, the C5 antibody was employed in IgG2a format, while all other antibodies, including the 7NP2 antibody, were in IgG1 format. The differences between the IgG2a and IgG1 formats are not expected to affect binding to FAP. After 3 washes with PBS, binding of the antibodies to oFAP-ECD and pFAP-ECD was detected using an anti-human or anti-murine antibody HRP conjugate.

[2] = molecular target: T2, human FAP-ECD (extracellular domain) recombinant fragment containing a C-terminal His6 tag (human, UniProt Q12884 26-760, randomly biotinylated with NHS ester-activated biotin (as used on the SA chip and Streptawell plates)); assay: epitope ELISA on biotinylated human FAP, co-incubated with C5 IgG2a, 5 ug/mL
T2 construct: also called biotinylated human FAP-ECD; biotinylated human FAP
T2 sequence: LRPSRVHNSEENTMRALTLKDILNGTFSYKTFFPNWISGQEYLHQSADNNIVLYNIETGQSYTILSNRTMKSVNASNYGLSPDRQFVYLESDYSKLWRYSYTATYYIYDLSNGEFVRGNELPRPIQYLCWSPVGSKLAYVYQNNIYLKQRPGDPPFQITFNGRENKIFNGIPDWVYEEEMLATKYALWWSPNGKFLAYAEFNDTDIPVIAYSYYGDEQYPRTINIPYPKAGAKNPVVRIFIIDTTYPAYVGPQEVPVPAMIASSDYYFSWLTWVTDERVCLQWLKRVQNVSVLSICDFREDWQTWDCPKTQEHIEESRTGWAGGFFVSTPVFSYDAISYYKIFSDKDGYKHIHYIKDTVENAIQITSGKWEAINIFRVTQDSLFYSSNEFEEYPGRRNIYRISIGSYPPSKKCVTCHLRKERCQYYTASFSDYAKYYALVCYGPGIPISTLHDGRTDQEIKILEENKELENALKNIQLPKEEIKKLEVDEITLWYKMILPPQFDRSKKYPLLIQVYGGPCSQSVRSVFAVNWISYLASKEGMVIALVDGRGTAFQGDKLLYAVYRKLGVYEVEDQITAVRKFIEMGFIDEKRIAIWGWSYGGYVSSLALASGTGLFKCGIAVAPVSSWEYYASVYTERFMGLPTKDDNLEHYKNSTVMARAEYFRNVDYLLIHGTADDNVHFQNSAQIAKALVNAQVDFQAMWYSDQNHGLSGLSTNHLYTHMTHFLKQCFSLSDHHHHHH
Procedure: (§2) To evaluate binding, 100 nM of biotinylated human FAP were coated on Streptawell plates for 30 min at 37° C.
(§3) The C5 antibody in IgG2a format was incubated together with the 7NP2 antibody in IgG1 format, the F5 antibody in IgG1 format (WO2016/116399), the ESC11 antibody in IgG1 format (Fisher et al., (2012) Clin Cancer Res; 18(22)), or the (negative control) antibody KSF in IgG1 format for 1.5 h at room temperature at a concentration of 5 μg/mL in the antigen-coated wells. After 3 washes with PBS, binding of the antibodies to human FAP was detected using anti-human or anti-murine HRP conjugates (FIG. 7).

[3] = molecular target: T1, ovine FAP (oFAP) extracellular domain …; assay: ELISA, 120 nM oFAP-ECD coated on Maxisorp plates
Procedure: as §1

[4] = molecular target: T2, human FAP-ECD (extracellular domain) …; assay: epitope ELISA on biotinylated human FAP on Streptawell plates
Procedure: as §2, §3

B1: anti-FAP antibody 7NP2 in IgG1 format (antibody, V domains shown)
VH: EVQLLESGGGLVQPGGSLRLSCAASGFTFSSYAMSWVRQAPGKGLEWVSAIGSVGGPTYYADSVKGRFTISRDNSKNTLYLQMNSLRAEDTAVYYCAKRLAWFDYWGQGTLVTVSS
VL: EIVLTQSPGTLSLSPGERATLSCRASQSVSSSYLAWYQQKPGQAPRLLIYGASSRATGIPDRFSGSGSGTDFTLTISRLEPEDFAVYYCQQSGKGPLTFGQGTKVEIKR
notes: also called 7NP2 IgG1; 7NP2(IgG1)
binding result [1]: binds | binding result [2]: binds

B2: anti-hen egg lysozyme antibody KSF in IgG1 format (antibody, V domains shown)
VH: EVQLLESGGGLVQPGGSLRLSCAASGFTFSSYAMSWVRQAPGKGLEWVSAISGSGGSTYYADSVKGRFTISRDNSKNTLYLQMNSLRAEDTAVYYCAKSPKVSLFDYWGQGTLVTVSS
VL: SSELTQDPAVSVALGQTVRITCQGDSLRSYYASWYQQKPGQAPVLVIYGKNNRPSGIPDRFSGSSSGNTASLTITGAQAEDEADYYCQSSPLNRLAVVFGGGTKLTVLG
notes: Negative control; It was conjugated to FITC in the immunofluorescence and ex vivo experiments; also called KSF IgG1; KSF(IgG1)
binding result [3]: no binding (tested: 5 µg/mL) | binding result [4]: no binding (tested: 5 µg/mL)
